T1: Endogenous murine CD206 on M2-polarized bone marrow-derived macrophages (mouse, UniProt Q61830 20-1456)
T1 construct: whole, on cells; also called endogenous CD206 in murine macrophages; CD206 of M2 BMDMs
T1 sequence (looked up): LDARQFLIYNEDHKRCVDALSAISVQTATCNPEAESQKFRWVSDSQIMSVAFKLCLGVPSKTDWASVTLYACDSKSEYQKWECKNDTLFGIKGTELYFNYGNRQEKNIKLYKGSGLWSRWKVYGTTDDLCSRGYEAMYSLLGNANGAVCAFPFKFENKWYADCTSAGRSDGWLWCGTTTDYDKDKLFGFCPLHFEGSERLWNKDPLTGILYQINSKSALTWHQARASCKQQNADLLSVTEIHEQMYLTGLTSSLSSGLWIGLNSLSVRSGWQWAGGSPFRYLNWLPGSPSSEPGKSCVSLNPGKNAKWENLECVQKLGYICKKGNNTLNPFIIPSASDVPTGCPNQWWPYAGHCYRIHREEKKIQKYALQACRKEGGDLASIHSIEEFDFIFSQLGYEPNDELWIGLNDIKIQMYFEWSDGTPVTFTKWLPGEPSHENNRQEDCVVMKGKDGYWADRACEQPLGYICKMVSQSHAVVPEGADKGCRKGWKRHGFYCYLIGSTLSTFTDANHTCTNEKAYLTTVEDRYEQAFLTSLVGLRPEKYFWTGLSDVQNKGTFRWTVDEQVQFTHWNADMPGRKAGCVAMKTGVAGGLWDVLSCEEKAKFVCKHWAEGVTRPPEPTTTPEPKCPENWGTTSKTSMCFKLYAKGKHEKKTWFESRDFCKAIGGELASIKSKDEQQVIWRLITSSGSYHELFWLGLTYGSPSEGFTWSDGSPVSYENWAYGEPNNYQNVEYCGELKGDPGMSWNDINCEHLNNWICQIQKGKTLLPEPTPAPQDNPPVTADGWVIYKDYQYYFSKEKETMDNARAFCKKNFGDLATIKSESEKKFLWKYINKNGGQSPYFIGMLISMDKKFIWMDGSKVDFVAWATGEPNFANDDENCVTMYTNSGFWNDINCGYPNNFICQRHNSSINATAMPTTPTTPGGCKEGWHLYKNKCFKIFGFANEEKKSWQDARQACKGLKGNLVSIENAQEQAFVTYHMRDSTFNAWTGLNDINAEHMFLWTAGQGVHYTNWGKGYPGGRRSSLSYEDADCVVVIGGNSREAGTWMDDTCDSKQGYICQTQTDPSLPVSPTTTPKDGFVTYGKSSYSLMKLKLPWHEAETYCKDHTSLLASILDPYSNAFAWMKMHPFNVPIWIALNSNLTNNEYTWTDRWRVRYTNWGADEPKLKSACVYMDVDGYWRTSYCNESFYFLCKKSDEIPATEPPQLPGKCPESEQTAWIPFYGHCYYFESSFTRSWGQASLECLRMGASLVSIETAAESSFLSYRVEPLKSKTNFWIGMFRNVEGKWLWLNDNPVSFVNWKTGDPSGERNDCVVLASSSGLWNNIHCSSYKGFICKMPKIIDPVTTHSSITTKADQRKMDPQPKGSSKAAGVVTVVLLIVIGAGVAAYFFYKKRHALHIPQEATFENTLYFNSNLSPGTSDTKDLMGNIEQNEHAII

B1: RP-426 (peptide)
peptide: KARKAAKRAF
notes: Designed as a control to test the impact of hydrophobicity on activity
B2: Recombinant human CD206 (MRC1/CD206) (receptor, UniProt P22897 19-1383, looked up)
chain: LLDTRQFLIYNEDHKRCVDAVSPSAVQTAACNQDAESQKFRWVSESQIMSVAFKLCLGVPSKTDWVAITLYACDSKSEFQKWECKNDTLLGIKGEDLFFNYGNRQEKNIMLYKGSGLWSRWKIYGTTDNLCSRGYEAMYTLLGNANGATCAFPFKFENKWYADCTSAGRSDGWLWCGTTTDYDTDKLFGYCPLKFEGSESLWNKDPLTSVSYQINSKSALTWHQARKSCQQQNAELLSITEIHEQTYLTGLTSSLTSGLWIGLNSLSFNSGWQWSDRSPFRYLNWLPGSPSAEPGKSCVSLNPGKNAKWENLECVQKLGYICKKGNTTLNSFVIPSESDVPTHCPSQWWPYAGHCYKIHRDEKKIQRDALTTCRKEGGDLTSIHTIEELDFIISQLGYEPNDELWIGLNDIKIQMYFEWSDGTPVTFTKWLRGEPSHENNRQEDCVVMKGKDGYWADRGCEWPLGYICKMKSRSQGPEIVEVEKGCRKGWKKHHFYCYMIGHTLSTFAEANQTCNNENAYLTTIEDRYEQAFLTSFVGLRPEKYFWTGLSDIQTKGTFQWTIEEEVRFTHWNSDMPGRKPGCVAMRTGIAGGLWDVLKCDEKAKFVCKHWAEGVTHPPKPTTTPEPKCPEDWGASSRTSLCFKLYAKGKHEKKTWFESRDFCRALGGDLASINNKEEQQTIWRLITASGSYHKLFWLGLTYGSPSEGFTWSDGSPVSYENWAYGEPNNYQNVEYCGELKGDPTMSWNDINCEHLNNWICQIQKGQTPKPEPTPAPQDNPPVTEDGWVIYKDYQYYFSKEKETMDNARAFCKRNFGDLVSIQSESEKKFLWKYVNRNDAQSAYFIGLLISLDKKFAWMDGSKVDYVSWATGEPNFANEDENCVTMYSNSGFWNDINCGYPNAFICQRHNSSINATTVMPTMPSVPSGCKEGWNFYSNKCFKIFGFMEEERKNWQEARKACIGFGGNLVSIQNEKEQAFLTYHMKDSTFSAWTGLNDVNSEHTFLWTDGRGVHYTNWGKGYPGGRRSSLSYEDADCVVIIGGASNEAGKWMDDTCDSKRGYICQTRSDPSLTNPPATIQTDGFVKYGKSSYSLMRQKFQWHEAETYCKLHNSLIASILDPYSNAFAWLQMETSNERVWIALNSNLTDNQYTWTDKWRVRYTNWAADEPKLKSACVYLDLDGYWKTAHCNESFYFLCKRSDEIPATEPPQLPGRCPESDHTAWIPFHGHCYYIESSYTRNWGQASLECLRMGSSLVSIESAAESSFLSYRVEPLKSKTNFWIGLFRNVEGTWLWINNSPVSFVNWNTGDPSGERNDCVALHASSGFWSNIHCSSYKGYICKRPKIIDAKPTHELLTTKADTRKMDPSK
notes: Bought protein; also called recombinant MRC1/CD206; rMRC1/CD206

Key:
[1] = target: B2; test: microscale thermophoresis, label-free, recombinant CD206
Experimental: Specifically, two-fold serial dilutions of the peptides were prepared in PBS and incubated with the same volume of 250 nM recombinant human and mouse CD206 in PBS. After a 5 min incubation at room temperature (RT), measurements were carried out in standard capillaries using a Monolith NT. Labelfree instrument (Nanotemper Technologies) with 40% LED excitation power, 40% IR-laser power, and laser on and off times of 30 s and 5 s, respectively. KD values were calculated by fitting the T-Jump signal of the thermograph using MOAffinity analysis software (Nanotemper Technologies).

[2] = target: T1, Endogenous murine CD206 on M2-polarized …; test: cellular thermal shift assay (CETSA) on M2-polarized macrophages
Experimental: The target engagement of the peptides in macrophages was assessed using the cellular thermal shift assay (CETSA) following the Jafari et al. protocol with minor modifications. […] After treatment, cells were collected by centrifugation for 5 min at 300×g and re-suspended in 600 μL DMEM. […] Samples were centrifuged at 20,000×g for 20 min at 4° C., and the supernatant was subsequently analyzed by western blot using 12-230 kDa Peggy Sue separation module (ProteinSimple, Cat #, SM-S001) and Peggy Sue instrument (Protein Simple) with following settings: electrophoresis 250 volts for 45 min; blocking, 23 min; primary antibody, 30 min; secondary antibody, 30 min. Quantitative analysis of CD206 level was performed using anti-CD206 antibody at 1:70 concentration multiplexed with anti-SOD1 antibody at 1:300 dilution, as internal control for normalization, and Compass software (ProteinSimple, San Jose, Calif.).

[3] = target: the molecule itself; test: small-angle X-ray scattering (SAXS), self-association
Experimental: SAXS data was collected at the 12ID-B beamline of the Advanced Photon Source (APS), Argonne National Laboratory, Lemont, Ill. […] Concentration series measurements for CD206 in buffer containing 50 mM Hepes, 100 mM NaCl, 1 mM DTT were carried out to extrapolate the data to infinite dilution for removing the scattering contribution due to interparticle interactions (concentration effect). Thirty 2D-image frames were recorded for sample solution and their matching buffer using a flow cell, with the exposure time of 0.75-1 sec to minimize radiation damage and to yield optimal signal-to-noise ratio. The 2D images were reduced to 1D scattering profiles and averaged using the Matlab software package at the beamlines.
The buffer background subtraction and intensity extrapolation to infinite dilution were carried out using MatLab script developed by 12-ID-B beamline. The radius of gyration (Rg) was generated from Guinier plot in the range of qRg<1.3. For comparison, Rg was also calculated in real and reciprocal spaces using program GNOM (https://www.embl-hamburg.de/biosaxs/manuals/gnom.html). The pair-distance distribution function P(r) and maximum dimension (Dmax) were also calculated using GNOM. […] Based on the silico models of CD206 monomer derived from iTASSER, the fit of dimer of CD206 to SAXS experimental data were calculated using the program CORAL.

Binder: B1
- Kd [1]: 85 µM
- binding result [2]: no binding (tested: 100 µM)

Binder: B2
- binding result [3]: binds
